Measurements published in US20200407456A1 (AP BIOSCIENCES, published 2020).

B1: anti-CD137 antibody clone 15 (antibody, human IgG4 S228P, lambda, V domains shown)
VH: QVQLVQSGAEVKKPGSSVKVSCKASGGTFSSYAISWVRQAPGQGLEWMGRIIPILGIANYAQKFQGRVTITADKSTSTAYMELSSLRSEDTAVYYCASDLYQLLFPYYYGMDVWGQGTTVTVSS
VL: QLVLTQPPSASASLGASVTLTCTLSSGYSNYKVDWYQQRPGKGPRFVMRVGTGGIVGSKGDGIPDRFSVLGSGLNRYLTIKNIQEEDESDYHCGADHGSGSNLFWVFGGGTKLTVLG
notes: also called CD137 #15; anti-CD137#15
B2: anti-CD137 antibody clone 31 (antibody, human IgG4 S228P, lambda, V domains shown)
VH: not shown
VL: QSALTQPASVSGSPGQSITISCTGTSSDVGAYNFVSWYQQRPGKAPELMIYDVSDRPSGVSNRFSGSKSGNTASLTISGLQTEDEADYYCSSYTSSITRYVFGTGTKVTVLG
notes: also called CD137 #31; anti-CD137#31
B3: anti-CD137 antibody clone 54 (antibody, human IgG4 S228P, lambda, V domains shown)
VH: QVQLVQSGAEVKKPGSTVKVSCKASGGTFSSYAISWVRQAPGQGLEWMGRIIPILGIANYAQKFQGRVTITADKSTSTAYMELSSLRSEDTAVYYCASPPYYDSSGYYPLGAFDIWGQGTMVTVSS
VL: SYELTQPPSVSVSPGQTASITCSGDKLGEKYASWYQQKAGQSPILVIYQDSKRPSGIPERFSGSNSGNTATLTISGLQAGDEADYYCQAWDGSSTYVFGTGTKVTVFG
notes: also called CD137 #54; CD137#54

Key:
[1] = target: T1, CD137 expressed on cells (HEK-293F/CD137 cells); PMA/ionomycin-activated Jurkat cells; CD137 reporter HEK293 … (UniProt Q07011 24-255, limits assumed); test: flow cytometry on HEK-293F/CD137 cells, antibody 50 µg/ml, anti-human Fc-A488
T1 construct: whole, on cells; One entry is used for CD137 on transfected HEK293/293F cells and for CD137 induced on Jurkat cells; also called 293F cells stably expressing CD137; CD137-overexpressing HEK-293F cells

[2] = target: T2, recombinant human CD137-ECD-Fc (APBio Inc.) (human, UniProt Q07011 24-186); test: ELISA on coated human CD137-IgG4 Fc
T2 construct: extracellular domain; Made by APBio; also called CD137-Fc recombinant protein; recombinant CD137/Fc; not shown: IgG4 Fc
T2 sequence (Q07011 24-186): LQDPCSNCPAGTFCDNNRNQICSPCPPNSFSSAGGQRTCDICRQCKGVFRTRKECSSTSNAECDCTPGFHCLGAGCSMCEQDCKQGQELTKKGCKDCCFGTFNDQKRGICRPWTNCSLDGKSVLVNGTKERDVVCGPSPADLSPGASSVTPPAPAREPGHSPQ

T1 sequence (Q07011 24-255 limits assumed): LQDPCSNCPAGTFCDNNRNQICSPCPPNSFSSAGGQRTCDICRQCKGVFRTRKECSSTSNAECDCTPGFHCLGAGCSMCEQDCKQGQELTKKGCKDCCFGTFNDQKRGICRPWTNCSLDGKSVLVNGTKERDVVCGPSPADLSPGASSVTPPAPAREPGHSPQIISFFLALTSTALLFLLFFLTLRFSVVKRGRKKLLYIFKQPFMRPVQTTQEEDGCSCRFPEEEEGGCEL

Binder	binding result [1]	binding result [2]
B1	binds	
B2	binds	binds
B3	binds	binds
